T1: human Siglec-4a-his protein (Acrobiosystems, Cat MAG-H52H8) (human, UniProt P20916 20-516)
T1 construct: Bought protein; not shown: his tag
T1 sequence (looked up): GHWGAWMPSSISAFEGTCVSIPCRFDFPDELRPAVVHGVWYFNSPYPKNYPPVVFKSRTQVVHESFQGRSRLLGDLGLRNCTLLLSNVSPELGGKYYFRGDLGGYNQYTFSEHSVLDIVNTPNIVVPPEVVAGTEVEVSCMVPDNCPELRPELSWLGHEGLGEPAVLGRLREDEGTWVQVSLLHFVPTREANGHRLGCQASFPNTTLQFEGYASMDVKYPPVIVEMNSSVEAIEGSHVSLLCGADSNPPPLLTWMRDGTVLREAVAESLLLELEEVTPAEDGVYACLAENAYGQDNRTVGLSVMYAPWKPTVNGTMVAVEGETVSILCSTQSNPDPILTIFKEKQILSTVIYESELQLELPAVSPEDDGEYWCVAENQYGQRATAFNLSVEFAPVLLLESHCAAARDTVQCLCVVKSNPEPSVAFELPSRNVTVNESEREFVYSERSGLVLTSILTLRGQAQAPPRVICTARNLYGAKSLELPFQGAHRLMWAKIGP

T2: human Siglec-15 ECD-his protein (Acrobiosystems, Cat #: SG5-H52H3) (human, UniProt Q6ZMC9 20-263)
T2 construct: Bought protein; only its extracellular domain stood in the assay; also called human Siglec-15 protein; recombinant human Siglec-15 protein; not shown: his tag
T2 sequence: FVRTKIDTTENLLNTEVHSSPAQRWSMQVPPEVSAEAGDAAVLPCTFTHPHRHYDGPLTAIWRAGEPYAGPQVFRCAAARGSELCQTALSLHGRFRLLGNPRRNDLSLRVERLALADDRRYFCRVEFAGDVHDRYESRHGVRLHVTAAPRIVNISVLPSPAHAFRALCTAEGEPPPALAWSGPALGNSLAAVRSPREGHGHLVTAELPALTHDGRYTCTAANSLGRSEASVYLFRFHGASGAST

T3: human Siglec-10-his protein (Acrobiosystems, Cat SIO-H52H9) (human, UniProt Q96LC7 17-546, limits assumed)
T3 construct: Bought protein; not shown: his tag
T3 sequence (looked up): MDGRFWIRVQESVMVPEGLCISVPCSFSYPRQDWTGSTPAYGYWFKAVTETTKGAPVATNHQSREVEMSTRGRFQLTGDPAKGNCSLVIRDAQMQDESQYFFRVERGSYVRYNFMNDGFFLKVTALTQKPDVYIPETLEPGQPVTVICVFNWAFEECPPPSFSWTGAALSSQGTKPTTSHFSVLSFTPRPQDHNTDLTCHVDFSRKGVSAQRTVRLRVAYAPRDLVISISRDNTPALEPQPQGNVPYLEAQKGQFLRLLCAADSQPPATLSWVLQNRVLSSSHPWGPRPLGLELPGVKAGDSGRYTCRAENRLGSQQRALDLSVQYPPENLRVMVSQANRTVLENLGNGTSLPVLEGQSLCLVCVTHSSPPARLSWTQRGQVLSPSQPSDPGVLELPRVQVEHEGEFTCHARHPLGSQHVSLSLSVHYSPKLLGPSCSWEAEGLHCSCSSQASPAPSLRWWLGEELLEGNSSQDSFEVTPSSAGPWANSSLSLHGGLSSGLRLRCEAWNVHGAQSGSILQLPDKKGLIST

B1: PR301289 (antibody, human IgG1, kappa, V domains shown)
VH: QVQLVQSGAEVKKPGASVKVSCRASGYTFTSYDINWVRQATGQGLEWMGWMNPHSGDTGYAQNFQGRVTMTWNTSISTAYMELSSLRSEDTAVYYCARRRVGVYYYGMDVWGQGTTVTVSS
VL: ENVLTQSPGTLSLSPGERATLSCRASQSVSSSYFGWYQQKPGQAPRLLIYGASSRATGIPDRFSGSGSGTDFTLTISRLEPEDFAVYYCQQYGSSPITFGQGTRLEIKR
notes: Parent of the PTM variants PR301289-1 and -2
B2: PR301286 (antibody, human IgG1, kappa, V domains shown)
VH: QVQLVESGGGVVQPGKSLRLSCAASGFTFSSYGMHWVRQAPGKGLEWVAVIWIDGSNRYYAASVKGRFTISRDNSKNTLYLQMNSLRAEDTAVYYCTRGYGDYAYVMDVWGQGASVTVSS
VL: DIVMTQSPLSLPVTPGEPASISCRSSQSLLPGNGYNYLDWYLQKPGQSPQLLIYLGSNRASGVPDRFSGSGSGTDFTLKISRVEAEDVGIYYCMQALQSPLTFGGGTKVEIKR
notes: Parent of the PTM variants PR301286-1, -3, -5, -6, -7
B3: PR301285 (antibody, human IgG1, kappa, V domains shown)
VH: QVQLQESGPGLVKPSETLSLTCTVSGGSMISYYWSWLRQPPGKGLEWIGYIYYSGNTNYNPSLKSRITIAVDTSKNQFSLKLNSVTAADTAVYYCARERELHPYYFDYWGQGTLVTVSS
VL: DIQLTQSPSFLSASVGDRVTITCRASQGIDNYLAWYQQKPGKAPKVLIYAASTLQSGVPSRFSGSGSGTEFTLTISSLQPEDFATYYCQQLNSYPLTFGGGTKVEIKR
B4: PR300066 (Tab) (antibody, human IgG1, kappa, V domains shown)
VH: QVQLQQPGAELVKPGASVKMSCKASGYTFTSYWITWVIQRPGQGLEWIGDIYCGSDTMHYNEKFKNKATLTVDTSSSTAYMQLSSLTSEDSAVYYCARWWDYGSSYDYFDYWGQGTTLTVSS
VL: DIKMTQSPSSMYASLGERVTITCKASQDINSYLSWFQQKPGKSPKTLIYRANRLVDGVPSRFSGSGSGQDYSLTISSLEYEDMGIYYCLQYDEFPYTFGGGTKLEIKR
notes: variable region from clone 5G12 of WO 2018/057735A1, on human IgG1/kappa constant regions; also called 5G12

“And” between values parts separate entries of the source, which are not always exact repeats. Identical values can stand only once.

One experiment concerns the target T1, human Siglec-4a-his protein …. The experiment can be described thus: ELISA on coated human Siglec-4a-his, antibody at 100 nM and 10 nM, goat anti-human IgG-HRP, OD450. On the procedure: (§1) Human Siglec-15 ECD-his protein (Acrobiosystems, Cat SG5-H52H3), human Siglec-2-his protein (Acrobiosystems, Cat CD2-H52H8), human Siglec-4a-his protein (Acrobiosystems, Cat MAG-H52H8), human Siglec-3-his protein (Acrobiosystems, Cat CD3-H5226), human Siglec-10-his protein (Acrobiosystems, Cat SIO-H52H9), and human PD-L1/B7-H1-his protein (Acrobiosystems, Cat PD1-H5229), each at 1 μg/mL and dissolved in PBS, were each added to an ELISA plate at 100 μL/well for coating and the plate was incubated overnight at 4° C. The ELISA plate was then blocked with PBST (PBS+0.05% Tween 20) containing 2% BSA at 200 μL/well and incubated at 37° C. for 1 h. The ELISA plate was washed 4 times with PBST. The anti-Siglec-15 antibody diluted in a gradient (concentrations: 100 nM and 10 nM) was added to the ELISA plate at 100 μL/well and the plate was incubated at 37° C. for 1 h. The ELISA plate was washed 4 times with PBST. The goat anti-human IgG (H+L)-HRP (1:5000, Jackson, Cat 109-035-088) was added at 100 μL/well and the plate was incubated at 37° C. for 1 h. The ELISA plate was washed 4 times with PBST. The TMB substrate (Biopanda, Cat TMB-S-003) was added at 100 μL/well, and the plate was incubated at room temperature for 5 min, and then the stop buffer (Solarbio, Cat #: C1058) was added at 100 μL/well to stop the reaction.
(In general: In an ELISA, binding on a coated surface is turned into a signal by an enzyme label.)
For the molecule B1, the binding result is “no binding (tested: 100 nM)”.
The same measure, in the same setting: for B2 the value was “no binding (tested: 100 nM)”.
Take B3: the binding result is on record as “no binding (tested: 100 nM)”.
Consider B4, for which the binding result is “no binding (tested: 100 nM)”.

Another experiment deals with T2, human Siglec-15 ECD-his protein …. The experiment can be described thus: BLI (Octet RED96), antibody on AHC sensor, Siglec-15 ECD-his as analyte. On the procedure:
Recombinant Human Siglec-15 Protein Affinity was determined using an Octet RED96 instrument (ForteBio) and an anti-human IgG Fc capture sensor (AHC biosensor, ForteBio, Cat #: 18-5060) according to the detailed procedures and methods provided by the manufacturer. Specifically, candidate antibodies were each diluted to a final concentration of 6 µg/mL and directly immobilized on AHC biosensors for kinetic measurements. The antigenic protein Siglec-15 ECD-his protein (Acrobiosystems, Cat #: SG5-H52H3) was diluted with 10× Kinetics buffer to 3 concentrations of 60 nM, 30 nM, and 15 nM separately and injected as the analyte for 120 s with a dissociation time of 400 s and then subjected to regeneration with 10 mM glycine HCl (pH 1.5) for 15 s. The association rate (kon) and dissociation rate (kdis) were calculated using a simple one-to-one Languir binding model (Octet Red96 data analysis software). The equilibrium dissociation constant (kD) was calculated as the ratio of kdis/kon.
The molecule B1 yielded a Kd of 0.173 nM, an off-rate constant (koff) of 6.47e-05 s⁻¹ and a kon of 373000 M⁻¹ s⁻¹.
With B2, the Kd was less than 0.001 nM; the koff was less than 1e-07 s⁻¹; the kon was 368000 M⁻¹ s⁻¹ and 292000 M⁻¹ s⁻¹.
B3 had a Kd of less than 0.001 nM, an off-rate (koff) of less than 1e-07 s⁻¹ and a kon of 529000 M⁻¹ s⁻¹.
In the case of B4, the Kd is 0.13 nM and 0.293 nM; the koff was 9.5e-05 s⁻¹ and 0.000182 s⁻¹; the kon was 730000 M⁻¹ s⁻¹ and 621000 M⁻¹ s⁻¹.

For another experiment, the target named is T4, human Siglec-3-his protein (Acrobiosystems, Cat CD3-H5226) (human, UniProt P20138 18-259).
T4 construct: Bought protein; not shown: his tag
T4 sequence (P20138 18-259 limits assumed): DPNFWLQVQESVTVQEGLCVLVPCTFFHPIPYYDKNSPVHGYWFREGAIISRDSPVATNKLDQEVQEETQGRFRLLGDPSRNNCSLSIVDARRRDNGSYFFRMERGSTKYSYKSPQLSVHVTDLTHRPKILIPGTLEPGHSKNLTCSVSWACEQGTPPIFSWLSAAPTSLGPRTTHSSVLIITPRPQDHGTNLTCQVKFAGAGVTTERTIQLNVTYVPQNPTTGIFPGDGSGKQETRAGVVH
As to the kind of experiment: ELISA on coated human Siglec-3-his, antibody at 100 nM and 10 nM, goat anti-human IgG-HRP, OD450. On the procedure:
as §1
Turning to B1, the binding result is given as “no binding (tested: 100 nM)”.
On the same count and under the same terms, for B2 the value was “no binding (tested: 100 nM)”.
The same measure, in the same setting: for B3 the value was “no binding (tested: 100 nM)”; for B4, “no binding (tested: 100 nM)”.

A further experiment addresses T3, human Siglec-10-his protein …. The experiment can be described thus: ELISA on coated human Siglec-10-his, antibody at 100 nM and 10 nM, goat anti-human IgG-HRP, OD450. On the procedure:
as §1
As to B1, the binding result is “no binding (tested: 100 nM)”.
The same measure, in the same setting: under B2 stands “no binding (tested: 100 nM)”; under B3, “no binding (tested: 100 nM)”; under B4, “no binding (tested: 100 nM)”.

As usually defined, the Kd is the constant that tells how readily two partners part at equilibrium. A high value points to lower affinity. As a reminder, the koff is the rate constant with which the complex falls apart. Low readings indicate slow dissociation, high ones fast dissociation. A word on the kon: it is a measure of how fast the partners come together.

Values taken from patent publication US20260070974A1 (NONA BIOSCIENCES SUZHOU, published 2026).
